Reference: PMC1698263

Target: FMRP (fragile X mental retardation protein) (human, UniProt Q06787 1-632)
Test: EMSA; FMRP 0.35-1.4 ug; 0.50 pmol RNA; FMRP EMSA: 30 min on ice, 6% nondenaturing PAGE; buffer, salt and pH not given (cited ref 18). Strand annealing assays (FMRP, I304N, dKHT, FXR1P) read RNA:RNA a

UAGGUAGUUUCAUGUUGUUGG (ssRNA) [hsa-miR-196a-1 mature miRNA]
binding result: binds
